Results from publication PMC6458971.

Target: AviTagged clade B YU-2 gp140 trimers (HIV-1 clade B, strain YU-2 | not stated)
Assay: SEC

“AviTagged clade B YU-2 gp140 trimers (domain or fragment)” gave a stoichiometry N of 3.
